# Measured values published in doi:10.1101/2024.06.17.599268 (bioRxiv, 2024).
# Changes are numbered by the printed parent chain. Names may count otherwise.
# B1: bMERB_(V985A) (domain or fragment)
# chain: KEEEMKRFCKAQTIQRRLNEIEAALRELEAEGVKLELALRRQSSSPEQQKKLWVGQLLQLVDKKNSLAAEEAELMITVQELNLEEKQWQLDQELRGYMNREENLKTAADRQAEDQVLRKLVDLVNQRDALIRFQEERRLSELALGTGAQG
# B2: Rab15_(1-176) (natural protein)
# chain: MAKQYDVLFRLLLIGDSGVGKTCLLCRFTDNEFHSSHISTIGVDFKMKTIEVDGIKVRIQIWDTAGQERYQTITKQYYRRAQGIFLVYDISSERSYQHIMKWVSDVDEYAPEGVQKILIGNKADEEQKRQVGREQGQQLAKEYGMDFYETSACTNLNIKESFTRLTELVLQAHRKE
# B3: Rab10_(1-175) (natural protein)
# chain: MAKKTYDLLFKLLLIGDSGVGKTCVLFRFSDDAFNTTFISTIGIDFKIKTVELQGKKIKLQIWDTAGQERFHTITTSYYRGAMGIMLVYDITNGKSFENISKWLRNIDEHANEDVERMLLGNKCDMDDKRVVPKGKGEQIAREHGIRFFETSAKANINIEKAFLTLAEDILRKTP
# B4: bMERB K918A_E921A (domain or fragment)
# chain: B1 chain with K1A, E4A, A68V
# B5: bMERB_(M992A_I993A) (domain or fragment)
# chain: B1 chain with A68V, M75A, I76A
# B6: bMERB L974A_L975A (domain or fragment)
# chain: B1 chain with L57A, L58A, A68V
# B7: bMERB L1011S (domain or fragment)
# chain: B1 chain with A68V, L94S
# B8: bMERB L977A_V978A (domain or fragment)
# chain: B1 chain with L60A, V61A, A68V
# B9: bMERB R1044A (domain or fragment)
# chain: B1 chain with A68V, R127A
# B10: bMERB I1048A (domain or fragment)
# chain: B1 chain with A68V, I131A
# B11: Mical1 bMERB domain (residues 918-1067) (domain or fragment)
# chain: B1 chain with A68V
# B12: bMERB V1038A (domain or fragment)
# chain: B1 chain with A68V, V121A
# B13: bMERB W970A (domain or fragment)
# chain: B1 chain with W53A, A68V
# B14: bMERB F925A (domain or fragment)
# chain: B1 chain with F8A, A68V
# B15: bMERB L956S (domain or fragment)
# chain: B1 chain with L39S, A68V
# B16: bMERB E939A (domain or fragment)
# chain: B1 chain with E22A, A68V
# B17: bMERB V1041A (domain or fragment)
# chain: B1 chain with A68V, V124A
# B18: bMERB_(L1047A_F1050A) (domain or fragment)
# chain: B1 chain with A68V, L130A, F133A
# B19: bMERB_(V1041A_I1048A) (domain or fragment)
# chain: B1 chain with A68V, V124A, I131A
# Biological target: T1, Rab8a_(1-176) (human, UniProt P61006 1-176)
# T1 sequence: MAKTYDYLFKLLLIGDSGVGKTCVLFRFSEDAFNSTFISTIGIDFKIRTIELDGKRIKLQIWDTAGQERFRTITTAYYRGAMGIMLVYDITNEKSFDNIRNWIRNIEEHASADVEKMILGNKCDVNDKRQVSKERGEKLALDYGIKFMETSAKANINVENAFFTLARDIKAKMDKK
# Assay: ITC
row,Molecule,binding result
1,B1,binds

# Biological target: B11
# Assay: ITC
Molecule,KD of the high-affinity site (Ct-RBS2) [nM],KD of the low-affinity site (Nt-RBS1) [nM],stoichiometry N
B2,2.5,2910,2
B3,11,3730,2

# Biological target: T1, Rab8a_(1-176)
# Assay: SEC
row,Molecule,binding result
1,B4,binds
2,B5,binds
3,B6,binds
4,B7,binds
5,B8,binds
6,B9,binds
7,B10,binds
8,B11,binds
9,B12,binds
10,B13,binds
11,B14,binds
12,B15,binds
13,B16,binds
14,B17,binds
15,B18,binds

# Biological target: B3
# Assay: SEC
row,Molecule,binding result
1,B11,binds

# Biological target: B2
# Assay: SEC
row,Molecule,binding result
1,B11,binds

# Biological target: Mical1 MO-CH-LIM (residues 1-781) (human) (UniProt Q8TDZ2)
# Assay: ITC
Molecule,Kd [nM],stoichiometry N
Mical1 bMERB domain (residues 918-1067) (from UniProt Q8TDZ2 918-1067) (domain or fragment),2700,1

# Biological target: T2, Mical1 MO-CH-LIM (residues 1-781) (human, UniProt Q8TDZ2 1-781)
# T2 sequence: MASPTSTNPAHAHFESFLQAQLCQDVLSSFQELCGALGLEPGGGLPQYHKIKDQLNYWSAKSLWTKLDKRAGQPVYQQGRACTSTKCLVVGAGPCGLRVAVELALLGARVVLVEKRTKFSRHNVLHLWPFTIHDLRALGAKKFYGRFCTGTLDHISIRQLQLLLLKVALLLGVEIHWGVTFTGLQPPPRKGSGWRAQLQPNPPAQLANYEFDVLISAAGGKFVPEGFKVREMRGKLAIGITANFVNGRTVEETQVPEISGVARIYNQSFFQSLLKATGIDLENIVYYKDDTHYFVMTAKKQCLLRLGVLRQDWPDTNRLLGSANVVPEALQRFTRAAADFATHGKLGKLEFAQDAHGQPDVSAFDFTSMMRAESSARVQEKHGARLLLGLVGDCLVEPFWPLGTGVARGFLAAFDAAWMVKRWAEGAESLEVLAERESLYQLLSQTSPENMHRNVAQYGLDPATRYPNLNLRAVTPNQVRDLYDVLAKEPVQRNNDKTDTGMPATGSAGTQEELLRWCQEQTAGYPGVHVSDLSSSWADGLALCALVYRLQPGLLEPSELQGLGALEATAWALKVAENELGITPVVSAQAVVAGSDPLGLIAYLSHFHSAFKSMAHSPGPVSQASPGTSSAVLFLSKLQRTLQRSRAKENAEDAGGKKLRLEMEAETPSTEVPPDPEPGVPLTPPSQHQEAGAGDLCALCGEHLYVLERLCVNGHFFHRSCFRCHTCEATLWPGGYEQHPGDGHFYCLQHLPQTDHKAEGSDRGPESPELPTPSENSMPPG
# Assay: ITC
Molecule,fold reduction in affinity against wild-type bMERB [fold],binding result
B4,2,–
B5,> 25,–
B6,6,–
B8,6,–
B13,4,–
B15,> 9,–
B16,> 5,–
B1,10,–
B19,–,binds
